Experimental data taken from patent publication US20120164140A1.

Key:
Assay in all cases: cell-based or functional assay
BMP-2 (unlabeled) = target: T1, BMP-2 (unlabeled) (UniProt P12643)
T1 sequence (looked up): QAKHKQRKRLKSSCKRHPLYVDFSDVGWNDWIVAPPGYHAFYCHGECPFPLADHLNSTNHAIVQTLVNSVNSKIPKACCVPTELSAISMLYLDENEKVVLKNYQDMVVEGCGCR

BMP-4 (unlabeled) = target: T2, BMP-4 (unlabeled) (UniProt P12644)
T2 sequence (looked up): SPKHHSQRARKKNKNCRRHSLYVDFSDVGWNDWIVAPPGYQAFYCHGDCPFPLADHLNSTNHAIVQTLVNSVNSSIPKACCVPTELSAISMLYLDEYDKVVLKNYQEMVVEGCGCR

BMP-6 = BMP-6 (UniProt P22004)
UniProt P22004, sequence (P22004 382-513 limits assumed): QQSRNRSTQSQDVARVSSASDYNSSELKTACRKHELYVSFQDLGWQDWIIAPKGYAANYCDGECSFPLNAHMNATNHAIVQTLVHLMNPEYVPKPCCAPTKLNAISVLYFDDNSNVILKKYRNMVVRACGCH

BMP-5 = BMP-5 (UniProt P22003)
UniProt P22003, sequence (P22003 317-454 limits assumed): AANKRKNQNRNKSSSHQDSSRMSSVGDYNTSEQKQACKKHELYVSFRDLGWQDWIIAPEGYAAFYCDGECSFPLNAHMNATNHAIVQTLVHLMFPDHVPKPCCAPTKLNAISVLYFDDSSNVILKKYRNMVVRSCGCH

Measured: decrease in hepcidin promoter activation (luciferase reporter, Hep3B cells)

purified soluble human hemojuvelin fused to the Fc portion of immunoglobulin (HJV.Fc) (Fc fusion)
> 90%: BMP-2 (unlabeled) | BMP-4 (unlabeled) | BMP-6 | BMP-5
